One sequence from the Immune Epitope Database (IEDB) can be followed below.

By Kd is commonly meant the concentration at which binding is half-saturated.

Among the targets are HLA-A*26:03; HLA-A*26:01; HLA-B*08:03; HLA-B*18:01; HLA-B*15:01; HLA-A*26:02; HLA-A*01:01; HLA-B*15:09; HLA-A*11:01; HLA-B*08:01.
Holding throughout (assay): IEDB peptide-MHC binding, purified MHC/competitive/fluorescence; filed as Kd, often an IC50 or EC50 that approximates it; ≥ and ≤ were set here for values at or beyond the usual limits of such assays
Conditions in all cases: source organism: Human immunodeficiency virus 1

With GTEEIKSLY, the Kd with HLA-A*26:03 is no less than 20 µM; in the assay with HLA-A*26:01, 1.57 µM; with HLA-B*08:03, no less than 20 µM; in the assay with HLA-B*18:01, 0.0777 µM; with HLA-B*15:01, no less than 20 µM; with HLA-A*26:02, 1.21 µM. Further, the Kd in the assay with HLA-A*01:01 was 0.0138 µM; in the assay with HLA-B*15:09, no less than 20 µM; with HLA-A*11:01, no less than 20 µM; with HLA-B*08:01 it was no less than 20 µM.
